Among the data in publication PMC4813465, “Selective Inhibition of the Mitochondrial Permeability Transition Pore Protects against Neurodegeneration in Experimental Multiple Sclerosis” (The Journal of Biological Chemistry, 2015) are half-maximal inhibition of Ca2+-induced PT pore opening, calcium retention capacity (CRC) assay on isolated liver mitochondria values, retold here.

The experiment concerns the target cyclophilin D (CypD, PPIF) with a K133I mutation.

Regarding cyclosporine (cyclosporin A) (peptide), the half-maximal inhibition of Ca2+-induced PT pore opening, calcium retention capacity (CRC) assay on isolated liver mitochondria came out at 40 nM.
